According to patent US20220267421A1 (INVOX PHARMA, published 2022):

T1: human E-Cadherin (R&D systems, 8505-EC) (human, UniProt P12830 155-707)
T1 sequence (looked up): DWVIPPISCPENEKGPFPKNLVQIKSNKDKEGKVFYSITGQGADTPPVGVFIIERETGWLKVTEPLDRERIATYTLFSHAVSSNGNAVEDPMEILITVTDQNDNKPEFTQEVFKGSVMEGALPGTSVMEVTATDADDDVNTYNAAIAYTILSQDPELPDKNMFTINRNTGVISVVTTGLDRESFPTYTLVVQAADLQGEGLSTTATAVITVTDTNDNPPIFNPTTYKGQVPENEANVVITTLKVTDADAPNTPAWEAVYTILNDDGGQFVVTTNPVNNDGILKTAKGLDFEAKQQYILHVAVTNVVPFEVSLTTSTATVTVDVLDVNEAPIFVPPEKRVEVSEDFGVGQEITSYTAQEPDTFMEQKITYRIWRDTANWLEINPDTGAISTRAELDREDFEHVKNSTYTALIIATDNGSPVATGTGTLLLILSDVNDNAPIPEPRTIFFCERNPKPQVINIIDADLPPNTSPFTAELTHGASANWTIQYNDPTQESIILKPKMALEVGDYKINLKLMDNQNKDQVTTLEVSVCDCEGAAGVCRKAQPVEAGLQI

T2: human EpCAM-hFc (in-house production) (human, UniProt P16422 24-265, limits assumed)
T2 construct: not shown: human Fc
T2 sequence (looked up): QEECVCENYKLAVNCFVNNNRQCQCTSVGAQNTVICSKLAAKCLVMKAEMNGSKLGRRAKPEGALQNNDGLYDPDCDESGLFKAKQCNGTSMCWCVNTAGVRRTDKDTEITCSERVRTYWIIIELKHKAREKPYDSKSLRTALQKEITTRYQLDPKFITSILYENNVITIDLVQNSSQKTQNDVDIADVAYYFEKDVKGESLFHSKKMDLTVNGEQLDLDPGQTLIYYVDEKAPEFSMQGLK

T3: human CEACAM-5-His-Fc (Sino Biological, 1077-H03H) (human, UniProt P06731 35-685)
T3 construct: not shown: His tag and Fc
T3 sequence (looked up): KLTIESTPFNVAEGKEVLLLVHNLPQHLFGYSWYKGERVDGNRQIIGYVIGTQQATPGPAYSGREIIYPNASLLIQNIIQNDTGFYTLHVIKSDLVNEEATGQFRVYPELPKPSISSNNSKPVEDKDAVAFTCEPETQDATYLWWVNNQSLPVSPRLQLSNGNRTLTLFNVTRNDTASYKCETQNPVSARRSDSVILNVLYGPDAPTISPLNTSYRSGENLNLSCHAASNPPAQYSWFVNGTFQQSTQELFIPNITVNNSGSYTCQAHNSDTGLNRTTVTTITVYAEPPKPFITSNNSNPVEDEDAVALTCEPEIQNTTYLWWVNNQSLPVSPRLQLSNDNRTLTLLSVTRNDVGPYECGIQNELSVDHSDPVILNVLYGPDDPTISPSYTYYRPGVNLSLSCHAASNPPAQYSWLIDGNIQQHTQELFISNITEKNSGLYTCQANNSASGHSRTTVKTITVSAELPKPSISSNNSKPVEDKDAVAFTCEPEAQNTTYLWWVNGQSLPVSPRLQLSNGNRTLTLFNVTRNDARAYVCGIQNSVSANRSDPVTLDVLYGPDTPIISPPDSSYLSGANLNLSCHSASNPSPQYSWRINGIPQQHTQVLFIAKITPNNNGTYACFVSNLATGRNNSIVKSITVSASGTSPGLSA


Assays:
[1] = target: T1, human E-Cadherin (R&D systems, 8505-EC); experiment: ELISA, antigen coated at 1 ug/ml
Protocol: (§1) A similar protocol was used as described in section 1.2.1 in which maxisorp plates were coated with 1 μg/ml of recombinant human MSLN-His-Avi, human CEACAM-5-His-Fc (Sino Biological, 1077-H03H), human E-Cadherin (R&D systems, 8505-EC), human Thrombomodulin (Peprotech, 100-58) or human EpCAM-hFc (in-house production). Binding of the anti-MSLN mAbs, tested at a concentration range of 0.02 to 1000 nM (3-fold dilutions) was detected using anti-human Fab-HRP (Sigma, A0293). Positive controls for the respective molecules included human EpCAM antibody (clone 2G8 from patent no. U.S. Pat. No. 8,236,308 B2) CEACAM-5 antibody (clone hMN15 from patent no. U.S. Pat. No. 8,771,690 B2), human E-Cadherin antibody, mouse IgG2b clone 180215 (R&D systems, MAB1838), human Thrombomodulin antibody, mouse IgG1, clone 501733 (R&D systems, MAB3947). The latter two were detected using goat anti mouse Fc-HRP (Sigma, A9309) as secondary mAb.

[2] = target: T2, human EpCAM-hFc (in-house production); experiment: ELISA, antigen coated at 1 ug/ml
Protocol: as §1

[3] = target: human Thrombomodulin (Peprotech, 100-58) (human, UniProt P07204 19-515); experiment: ELISA, antigen coated at 1 ug/ml
Sequence of human Thrombomodulin (Peprotech, 100-58) (P07204 19-515 limits assumed): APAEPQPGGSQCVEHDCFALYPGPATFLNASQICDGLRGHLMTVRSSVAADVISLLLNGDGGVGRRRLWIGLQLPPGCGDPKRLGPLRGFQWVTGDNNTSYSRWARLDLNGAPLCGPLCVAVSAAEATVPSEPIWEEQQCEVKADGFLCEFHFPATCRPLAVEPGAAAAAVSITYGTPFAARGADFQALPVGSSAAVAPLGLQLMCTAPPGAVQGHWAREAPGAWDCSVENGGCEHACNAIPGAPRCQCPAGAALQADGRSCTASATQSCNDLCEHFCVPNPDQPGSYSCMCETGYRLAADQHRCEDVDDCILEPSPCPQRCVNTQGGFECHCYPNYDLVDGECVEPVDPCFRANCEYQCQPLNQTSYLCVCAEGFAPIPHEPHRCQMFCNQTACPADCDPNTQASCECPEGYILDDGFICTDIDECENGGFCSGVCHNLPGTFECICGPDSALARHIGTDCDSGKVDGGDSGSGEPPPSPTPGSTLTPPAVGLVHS
Protocol: as §1

[4] = target: T3, human CEACAM-5-His-Fc (Sino Biological, …); experiment: ELISA, antigen coated at 1 ug/ml
Protocol: as §1

[5] = target: T4, cell surface human mesothelin (MSLN) (human, UniProt Q13421 296-598); experiment: flow cytometry, NCI-H226 cells (n = 3)
T4 construct: whole, on cells; also called cell surface MSLN
T4 sequence (Q13421 other isoform, or with tags, fused parts or gaps limits assumed): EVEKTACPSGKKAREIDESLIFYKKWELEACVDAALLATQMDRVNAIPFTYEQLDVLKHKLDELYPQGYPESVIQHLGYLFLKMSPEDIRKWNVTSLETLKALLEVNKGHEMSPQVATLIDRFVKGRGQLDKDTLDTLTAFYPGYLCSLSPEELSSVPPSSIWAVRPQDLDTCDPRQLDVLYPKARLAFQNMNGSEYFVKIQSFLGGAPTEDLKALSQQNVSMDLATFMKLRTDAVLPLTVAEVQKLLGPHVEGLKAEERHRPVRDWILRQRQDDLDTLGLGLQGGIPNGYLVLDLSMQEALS
Protocol: Briefly, NCI-H226 cells (ATCC CRL-5826) were harvested from T175 cell culture flasks using StemPro Accutase (Gibco, A11105-01). Cells were centrifuged at 1200 rpm for 3 min and resuspended in ice cold FACS buffer made up of DPBS (Life Technologies, 14190169) and 1% BSA (Sigma-Aldrich, A7906) at 2×10⁶ cells/ml and 50 μl per well was seeded in a 96-well V-bottom plate (Costar, 3894). All mAbs tested were diluted in FACS buffer in 120 μl at a concentration range of 0.01-200 nM (4-fold dilutions). The NCI-H226 cells were then centrifuged, supernatant removed and cells resuspended in 100 μl of each mAb dilution and incubated at 4° C. for 45 min. Cells were washed twice by centrifugation with 150 μl FACS buffer, resuspended in 100 μl containing goat anti-human IgG (γ-chain specific) F(ab′)2 fragment-R-Phycoerythrin antibody (Sigma, P8047) diluted 1:1000 in FACS buffer and incubated at 4° C. for 45 min. The cells were washed once with 150 μl FACS buffer and then with 150 μl DPBS, resuspended in 150 μl DPBS containing DAPI (Biotium, 40043) at 1:10.000 and read on the BDCantoll or iQue (Intellicyt). Data was analysed using FlowJo v10 to determine the signal geometric mean for PE for live cells in each well.

human MSLN-His-Avi [6] = target: T5, human MSLN-His-Avi (human, UniProt Q13421 296-598, single biotin (BirA) in the biotinylated form); experiment: ELISA, hMSLN-His-Avi coated at 1 ug/ml
T5 construct: Monomeric, made in HEK293-6E; Used both immobilised and in solution; also called hMSLN-His-Avi; biotinylated hMSLN-His-Avi
T5 sequence (Q13421 other isoform, or with tags, fused parts or gaps): as the sequence (Q13421 other isoform, or with tags, fused parts or gaps limits assumed) above

human MSLN-His-Avi [7] = target: T5, human MSLN-His-Avi; experiment: SPR (Biacore), hMSLN-His-Avi immobilised at 100 RU, mAb injected
Protocol: (§2) Human MSLN-His-Avi was immobilised on flow cell 2 on a CM5 Series S BIAcore sensor chip (GE Healthcare, BR100530) using an amine coupling kit (GE Healthcare, BR10050) to approximately 200 response units (RU). Flow cell 1 was left blank for subtraction. HEK293-6E supernatants or purified proteins were adjusted with HBS-EP+(GE Healthcare) to approximately 50 nM anti-MSLN mAb per sample. Samples were injected over flow cell 1 and 2 for 2.5 min at 30 μl/min and then allowed to dissociate in HBS-EP buffer for 2.5 min. Regeneration was achieved by injecting 10 mM glycine pH 1.5 (GE Healthcare, BR100354) for 30 seconds at a rate of 30 μl/min. Subtracted data (flow cell 2−flow cell 1) were analysed using BIAevaluation 3.2 Software (GE Healthcare).
(§3) For each bin described in 2.1.3, the binding kinetics were determined using the same method as described in section 2.1.2, except that human or cyno MSLN-His-Avi was immobilised at 50 or 100 RU. Clones were tested at a concentration range of 81 nM to 0.33 nM in 3-fold dilutions.

human MSLN-His-Avi [8] = target: T5, human MSLN-His-Avi; experiment: SPR (Biacore), hMSLN-His-Avi immobilised at 50 RU, mAb injected
Protocol: as §2, §3

human MSLN-His-Avi [9] = target: T5, human MSLN-His-Avi; experiment: ratio of the two SPR KD
human MSLN-His-Avi [10] = target: T5, human MSLN-His-Avi; experiment: SPR as Example 4.1 (about 40 RU instead of 100), MSLN immobilised
human MSLN-His-Avi [11] = target: T5, human MSLN-His-Avi; experiment: SPR as Example 4.1 (about 40 RU instead of 100), MSLN in solution

Ratio of KD in solution/immobilised for human MSLN-His-Avi (human MSLN-His-Avi [9]) | Kd (human MSLN-His-Avi [10]) | Kd (human MSLN-His-Avi [11]) | Binder | other results
– | – | – | G1-AA/FS28-185 (antibody, human IgG1, kappa, L234A L235A, V domains shown, IgG1 LALA) VH: EVQLLESGGGLVQPGGSLRLSCAASGFTFTTSAMSWVRQAPGKGLEWVSRINPYEGETNYADSVKGRFTISRDNSKNTLYLQMNSLRAEDTAVYYCARGWSIATYYKSAMDYWGQGTLVTVSS VL: EIVLTQSPGTLSLSPGERATLSCRASQSVSSSYLAWYQQKPGQAPRLLIYGASSRATGIPDRFSGSGSGTDFTLTISRLEPEDFAVYYCQQSSYSAPVTFGQGTKVEIKR | binding result [1]: no binding (tested: 1000 nM); binding result [2]: no binding (tested: 1000 nM); binding result [3]: no binding (tested: 1000 nM); binding result [4]: no binding (tested: 1000 nM); EC50 [5]: 37.5 nM; Emax (MFI signal) [5]: 2440 MFI; EC50 (human MSLN-His-Avi [6]): ~0.5 nM; maximum binding signal (human MSLN-His-Avi [6]): 3; Kd (human MSLN-His-Avi [7]): 29.6 nM; Kd (human MSLN-His-Avi [8]): 37 nM
2.8 | 19.8 nM | 55.9 nM | FS28-256-274 (in CD137 mAb^2 format) (bispecific antibody, V domains shown) VH: EVQLLESGGGLVQPGGSLRLSCAASGFTFTHTYMSWVRQAPGKGLEWVSTISPTYSTTNYADSVKGRFTISRDNNKNTLYLQMNSLRAEDTAVYYCARYNAYHAALDYWGQGTLVTVSS VL: EIVLTQSPGTLSLSPGERATLSCRASQSVSSSYLAWYQQKPGQAPRLLIYGASSRATGIPDRFSGSGSGTDFTLTISRLEPEDFAVYYCQQTVPYPYTFGQGTKVEIK | –
0.7 | 10.7 nM | 7.6 nM | FS28-256-272 (in CD137 mAb^2 format) (bispecific antibody, V domains shown, Position 55 is IMGT numbering, not the count on the entry) VH: EVQLLESGGGLVQPGGSLRLSCAASGFTFTHTYMSWVRQAPGKGLEWVSHISPTYSTTNYADSVKGRFTISRDNNKNTLYLQMNSLRAEDTAVYYCARYNAYHAALDYWGQGTLVTVSS VL: EIVLTQSPGTLSLSPGERATLSCRASQSVSSSYLAWYQQKPGQAPRLLIYGASSRATGIPDRFSGSGSGTDFTLTISRLEPEDFAVYYCQQTVPYPYTFGQGTKVEIK | –
1.2 | 6 nM | 7.4 nM | FS28-256-273 (in CD137 mAb^2 format) (bispecific antibody, V domains shown) VH: EVQLLESGGGLVQPGGSLRLSCAASGFTFTHTYMSWVRQAPGKGLEWVSSISPTYSTTNYADSVKGRFTISRDNNKNTLYLQMNSLRAEDTAVYYCARYNAYHAALDYWGQGTLVTVSS VL: EIVLTQSPGTLSLSPGERATLSCRASQSVSSSYLAWYQQKPGQAPRLLIYGASSRATGIPDRFSGSGSGTDFTLTISRLEPEDFAVYYCQQTVPYPYTFGQGTKVEIK | –
0.68 | 4.7 nM | 3.2 nM | FS28-256-027 (in CD137 mAb^2 format, Table 6) (bispecific antibody, V domains shown) VH: EVQLLESGGGLVQPGGSLRLSCAASGFTFTHTYMSWVRQAPGKGLEWVSNISPTYSTTNYADSVKGRFTISRDNNKNTLYLQMNSLRAEDTAVYYCARYNAYHAALDYWGQGTLVTVSS VL: EIVLTQSPGTLSLSPGERATLSCRASQSVSSSYLAWYQQKPGQAPRLLIYGASSRATGIPDRFSGSGSGTDFTLTISRLEPEDFAVYYCQQTVPYPYTFGQGTKVEIK | –
